According to the supplement of paper PMC11246515:
± gives the standard deviation of the averaged measurements.

Experiment: total protein half-life in vivo (active degradation + dilution); higher = more stable protein
[1] = E. coli NCM3722 delta-clpP delta-lon delta-hslV, growth: N-lim chemostat, doubling time 6 h
[2] = E. coli NCM3722 delta-clpP, growth: N-lim chemostat, doubling time 6 h
[3] = E. coli NCM3722 delta-hslV, growth: N-lim chemostat, doubling time 6 h
[4] = E. coli NCM3722 delta-lon, growth: N-lim chemostat, doubling time 6 h
[5] = E. coli NCM3722 delta-smpB, growth: N-lim chemostat, doubling time 6 h
[6] = wild type E. coli NCM3722, growth: C-lim chemostat, doubling time 3 h
[7] = wild type E. coli NCM3722, growth: C-lim chemostat, doubling time 6 h
[8] = wild type E. coli NCM3722, growth: C-lim chemostat, doubling time 12 h
[9] = wild type E. coli NCM3722, growth: N-lim chemostat, doubling time 6 h
[10] = wild type E. coli NCM3722, growth: N-lim chemostat, doubling time 12 h
[11] = wild type E. coli NCM3722, growth: P-lim chemostat, doubling time 6 h
[12] = wild type E. coli NCM3722, growth: P-lim chemostat, doubling time 12 h

With “MKQIRLLAQYYVDLMMKLGLVRFSMLLALALVVLAIVVQMAVTMVLHGQVESIDVIRSIFFGLLITPWAVYFLSVVVEQLEESRQRLSRLVQKLEEMRERDLSLNVQLKDNIAQLNQEIAVREKAEAELQETFGQLKIEIKEREETQIQLEQQSSFLRSFLDASPDLVFYRNEDKEFSGCNRAMELLTGKSEKQLVHLKPADVYSPEAAAKVIETDEKVFRHNVSLTYEQWLDYPDGRKACFEIRKVPYYDRVGKRHGLMGFGRDITERKRYQDALERASRDKTTFISTISHELRTPLNGIVGLSRILLDTELTAEQEKYLKTIHVSAVTLGNIFNDIIDMDKMERRKVQLDNQPVDFTSFLADLENLSALQAQQKGLRFNLEPTLPLPHQVITDGTRLRQILWNLISNAVKFTQQGQVTVRVRYDEGDMLHFEVEDSGIGIPQDELDKIFAMYYQVKDSHGGKPATGTGIGLAVSRRLAKNMGGDITVTSEQGKGSTFTLTIHAPSVAEEVDDAFDEDDMPLPALNVLLVEDIELNVIVARSVLEKLGNSVDVAMTGKAALEMFKPGEYDLVLLDIQLPDMTGLDISRELTKRYPREDLPPLVALTANVLKDKQEYLNAGMDDVLSKPLSVPALTAMIKKFWDTQDDEESTVTTEENSKSEALLDIPMLEQYLELVGPKLITDGLAVFEKMMPGYVSVLESNLTAQDKKGIVEEGHKIKGAAGSVGLRHLQQLGQQIQSPDLPAWEDNVGEWIEEMKEEWRHDVEVLKAWVAKATKK [P0AEC3]” the “total protein half-life in vivo” value [1] was 5.863 ± 0.04 h, the “total protein half-life in vivo” value [2] was 6.27 ± 0.077 h and the “total protein half-life in vivo” value [3] was 5.797 ± 0.042 h. For the same sequence, the “total protein half-life in vivo” value [4] was 5.21 ± 0.38 h, the “total protein half-life in vivo” value [5] was 5.568 ± 0.012 h and the “total protein half-life in vivo” value [6] was 3.09 ± 0.14 h. For the same sequence, the “total protein half-life in vivo” value [7] was 5.88 ± 0.086 h, the “total protein half-life in vivo” value [8] was 10.9 ± 0.17 h and the “total protein half-life in vivo” value [9] was 5.54 ± 0.18 h. For the same sequence, the “total protein half-life in vivo” value [10] was 10.5 ± 1 h, the “total protein half-life in vivo” value [11] was 5.69 ± 0.2 h and the “total protein half-life in vivo” value [12] was 11.4 ± 0.22 h.

With “MKQLWFAMSLVTGSLLFSANASATPASGALLQQMNLASQSLNYELSFISINKQGVESLRYRHARLDNRPLAQLLQMDGPRREVVQRGNEISYFEPGLEPFTLNGDYIVDSLPSLIYTDFKRLSPYYDFISVGRTRIADRLCEVIRVVARDGTRYSYIVWMDTESKLPMRVDLLDRDGETLEQFRVIAFNVNQDISSSMQTLAKANLPPLLSVPVGEKAKFSWTPTWLPQGFSEVSSSRRPLPTMDNMPIESRLYSDGLFSFSVNVNRATPSSTDQMLRTGRRTVSTSVRDNAEITIVGELPPQTAKRIAENIKFGAAQ [P0AFX9]” the “total protein half-life in vivo” value [2] was 6.16 ± 0.25 h, the “total protein half-life in vivo” value [3] was 6.13 ± 0.069 h and the “total protein half-life in vivo” value [4] was 5.896 ± 0.045 h. For the same sequence, the “total protein half-life in vivo” value [5] was 5.8 ± 0.49 h, the “total protein half-life in vivo” value [6] was 2.96 ± 0.22 h and the “total protein half-life in vivo” value [7] was 6.16 ± 0.61 h. For the same sequence, the “total protein half-life in vivo” value [8] was 10.4 ± 0.19 h, the “total protein half-life in vivo” value [9] was 6.73 ± 0.14 h and the “total protein half-life in vivo” value [10] was 13.2 ± 1.5 h. For the same sequence, the “total protein half-life in vivo” value [11] was 5.88 ± 0.69 h and the “total protein half-life in vivo” value [12] was 12 ± 0.74 h.

With “MKQPAPVYQRIAGHQWRHIWLSGDIHGCLEQLRRKLWHCRFDPWRDLLISVGDVIDRGPQSLRCLQLLEQHWVCAVRGNHEQMAMDALASQQMSLWLMNGGDWFIALADNQQKQAKTALEKCQHLPFILEVHSRTGKHVIAHADYPDDVYEWQKDVDLHQVLWSRSRLGERQKGQGITGADHFWFGHTPLRHRVDIGNLHYIDTGAVFGGELTLVQLQ” the “total protein half-life in vivo” value [12] was 5.48 h.

In the case of “MKQPGEELQETLTELDDRAVVDYLIKNPEFFIRNARAVEAIRVPHPVRGTVSLVEWHMARARNHIHVLEENMALLMEQAIANEGLFYRLLYLQRSLTAASSLDDMLMRFHRWARDLGLAGASLRLFPDRWRLGAPSNHTHLALSRQSFEPLRIQRLGQEQHYLGPLNGPELLVVLPEAKAVGSVAMSMLGSDADLGVVLFTSRDASHYQQGQGTQLLHEIALMLPELLERWIERV”, the “total protein half-life in vivo” value [1] is reported as 5.46 ± 0.28 h, the “total protein half-life in vivo” value [3] is reported as 1.73 ± 0.75 h and the “total protein half-life in vivo” value [4] is reported as 1.21 ± 0.07 h. The “total protein half-life in vivo” value [5] was 0.944 ± 0.016 h, the “total protein half-life in vivo” value [6] was 1.4 ± 0.051 h and the “total protein half-life in vivo” value [7] was 2.35 ± 0.43 h. The “total protein half-life in vivo” value [8] was 2.74 ± 0.45 h, the “total protein half-life in vivo” value [9] was 1.33 h and the “total protein half-life in vivo” value [10] was 1.56 h. For the same sequence, the “total protein half-life in vivo” value [11] was 2.18 ± 0.26 h and the “total protein half-life in vivo” value [12] was 3.12 ± 1 h.

In the case of “MKQSHFFAHLSRLKLINRWPLMRNVRTENVSEHSLQVAMVAHALAAIKNRKFGGNVNAERIALLAMYHDASEVLTGDLPTPVKYFNSQIAQEYKAIEKIAQQKLVDMVPEELRDIFAPLIDEHAYSDEEKSLVKQADALCAYLKCLEELAAGNNEFLLAKTRLEATLEARRSQEMDYFMEIFVPSFHLSLDEISQDSPL”, the “total protein half-life in vivo” value [1] is reported as 4.544 ± 0.041 h, the “total protein half-life in vivo” value [2] is reported as 4.34 ± 0.065 h and the “total protein half-life in vivo” value [3] is reported as 4.17 ± 0.19 h. The “total protein half-life in vivo” value [4] was 5.57 ± 1.7 h, the “total protein half-life in vivo” value [5] was 4.07 ± 0.4 h and the “total protein half-life in vivo” value [6] was 2.94 ± 0.21 h. For the same sequence, the “total protein half-life in vivo” value [7] was 5.64 ± 0.19 h, the “total protein half-life in vivo” value [9] was 4.16 ± 0.45 h and the “total protein half-life in vivo” value [10] was 7.12 ± 0.38 h. For the same sequence, the “total protein half-life in vivo” value [11] was 4.86 ± 0.56 h and the “total protein half-life in vivo” value [12] was 9.76 ± 0.83 h.

For “MKQTQRHNGIIELVKQQGYVSTEELVEHFSVSPQTIRRDLNELAEQNLILRHHGGAALPSSSVNTPWHDRKATQTEEKERIARKVAEQIPNGSTLFIDIGTTPEAVAHALLNHSNLRIVTNNLNVANTLMVKEDFRIILAGGELRSRDGGIIGEATLDFISQFRLDFGILGISGIDSDGSLLEFDYHEVRTKRAIIENSRHVMLVVDHSKFGRNAMVNMGSISMVDAVYTDAPPPVSVMQVLTDHHIQLELC [P0ACL0]”, the “total protein half-life in vivo” value [1] was 6.303 ± 0.03 h, the “total protein half-life in vivo” value [2] was 5.91 ± 0.36 h and the “total protein half-life in vivo” value [3] was 5.156 ± 0.034 h. The “total protein half-life in vivo” value [4] was 5.78 ± 0.11 h, the “total protein half-life in vivo” value [5] was 5.52 ± 0.89 h and the “total protein half-life in vivo” value [6] was 2.84 ± 0.11 h. The “total protein half-life in vivo” value [7] was 5.9 ± 0.41 h, the “total protein half-life in vivo” value [8] was 10.73 ± 0.031 h and the “total protein half-life in vivo” value [9] was 5.84 ± 0.25 h. The “total protein half-life in vivo” value [10] was 10.323 ± 0.00092 h, the “total protein half-life in vivo” value [11] was 5.28 ± 0.33 h and the “total protein half-life in vivo” value [12] was 11.3 ± 0.63 h.
